In article PMC6547417:
Where two headings read alike, the source gives them in different places.

How the values were obtained:
Assay in all cases: EMSA
[1] = biological target: T1, RPA (UniProt P27694;P15927;P35244 1-616;1-270;1-121)
[2] = biological target: CST (CTC1-STN1-TEN1) (human, UniProt Q2NKJ3;Q9H668;Q86WV5 1-1217;1-368;1-123)
[3] = biological target: T1, RPA; remark: listed apart in the source

T1 sequence (P27694 whole entry, chain 1 of 3): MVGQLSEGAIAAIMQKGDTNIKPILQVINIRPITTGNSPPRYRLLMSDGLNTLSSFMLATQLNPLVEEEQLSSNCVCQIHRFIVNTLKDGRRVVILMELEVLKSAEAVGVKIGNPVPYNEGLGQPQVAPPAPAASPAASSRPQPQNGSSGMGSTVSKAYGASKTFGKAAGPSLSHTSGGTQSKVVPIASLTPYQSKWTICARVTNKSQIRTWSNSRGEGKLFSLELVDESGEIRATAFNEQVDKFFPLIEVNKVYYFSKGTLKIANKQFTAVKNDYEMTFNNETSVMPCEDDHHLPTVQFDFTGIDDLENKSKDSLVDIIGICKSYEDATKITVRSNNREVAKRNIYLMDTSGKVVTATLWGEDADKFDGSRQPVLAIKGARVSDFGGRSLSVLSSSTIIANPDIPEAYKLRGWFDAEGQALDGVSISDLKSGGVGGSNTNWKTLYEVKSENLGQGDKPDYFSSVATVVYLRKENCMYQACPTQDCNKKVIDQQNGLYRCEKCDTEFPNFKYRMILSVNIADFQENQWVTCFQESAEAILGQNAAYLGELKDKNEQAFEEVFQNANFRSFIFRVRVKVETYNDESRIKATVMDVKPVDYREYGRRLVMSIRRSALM
T1 sequence (P15927 whole entry, chain 2 of 3): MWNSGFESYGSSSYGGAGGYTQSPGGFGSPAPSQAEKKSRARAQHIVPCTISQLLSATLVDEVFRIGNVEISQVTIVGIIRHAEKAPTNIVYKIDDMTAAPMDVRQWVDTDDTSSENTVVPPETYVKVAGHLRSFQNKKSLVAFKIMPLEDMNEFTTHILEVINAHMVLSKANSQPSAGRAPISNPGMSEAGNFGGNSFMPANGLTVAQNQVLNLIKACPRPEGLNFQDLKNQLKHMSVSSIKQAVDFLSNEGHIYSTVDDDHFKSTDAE
T1 sequence (P35244 whole entry, chain 3 of 3): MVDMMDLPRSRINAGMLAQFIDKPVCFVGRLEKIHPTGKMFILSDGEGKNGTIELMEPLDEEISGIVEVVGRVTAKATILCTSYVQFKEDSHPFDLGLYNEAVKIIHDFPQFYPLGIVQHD
Sequence of CST (CTC1-STN1-TEN1) (Q2NKJ3 whole entry, chain 1 of 3): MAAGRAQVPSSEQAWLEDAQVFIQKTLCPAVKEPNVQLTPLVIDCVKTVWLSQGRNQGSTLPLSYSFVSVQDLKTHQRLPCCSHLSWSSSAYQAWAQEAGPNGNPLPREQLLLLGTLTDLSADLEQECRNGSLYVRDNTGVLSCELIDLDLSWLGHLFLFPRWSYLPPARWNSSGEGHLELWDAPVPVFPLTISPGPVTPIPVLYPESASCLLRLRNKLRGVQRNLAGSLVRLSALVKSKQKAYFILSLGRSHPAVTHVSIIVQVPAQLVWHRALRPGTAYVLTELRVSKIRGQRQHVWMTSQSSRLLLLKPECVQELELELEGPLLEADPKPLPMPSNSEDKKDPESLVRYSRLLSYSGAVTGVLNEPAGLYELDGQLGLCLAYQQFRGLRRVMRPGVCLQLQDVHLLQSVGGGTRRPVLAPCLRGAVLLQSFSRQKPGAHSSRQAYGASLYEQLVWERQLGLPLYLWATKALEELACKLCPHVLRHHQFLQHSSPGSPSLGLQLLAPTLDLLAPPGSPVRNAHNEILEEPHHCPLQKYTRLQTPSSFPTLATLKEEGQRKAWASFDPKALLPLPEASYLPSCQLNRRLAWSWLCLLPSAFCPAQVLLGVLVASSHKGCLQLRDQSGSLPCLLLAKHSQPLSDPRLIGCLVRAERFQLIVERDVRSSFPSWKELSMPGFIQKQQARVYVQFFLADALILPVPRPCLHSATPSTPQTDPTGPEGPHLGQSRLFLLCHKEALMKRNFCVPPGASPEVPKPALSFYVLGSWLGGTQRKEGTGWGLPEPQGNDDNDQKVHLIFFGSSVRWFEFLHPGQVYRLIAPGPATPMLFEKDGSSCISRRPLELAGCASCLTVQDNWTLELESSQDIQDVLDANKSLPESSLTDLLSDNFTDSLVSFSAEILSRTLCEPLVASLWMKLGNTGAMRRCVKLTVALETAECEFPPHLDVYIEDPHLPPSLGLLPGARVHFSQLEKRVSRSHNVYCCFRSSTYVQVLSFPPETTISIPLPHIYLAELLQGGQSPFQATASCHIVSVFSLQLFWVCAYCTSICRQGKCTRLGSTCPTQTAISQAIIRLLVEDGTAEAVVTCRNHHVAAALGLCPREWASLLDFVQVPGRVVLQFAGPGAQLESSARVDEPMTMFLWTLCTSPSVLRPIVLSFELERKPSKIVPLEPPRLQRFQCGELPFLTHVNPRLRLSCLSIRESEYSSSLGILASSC
Sequence of CST (CTC1-STN1-TEN1) (Q9H668 whole entry, chain 2 of 3): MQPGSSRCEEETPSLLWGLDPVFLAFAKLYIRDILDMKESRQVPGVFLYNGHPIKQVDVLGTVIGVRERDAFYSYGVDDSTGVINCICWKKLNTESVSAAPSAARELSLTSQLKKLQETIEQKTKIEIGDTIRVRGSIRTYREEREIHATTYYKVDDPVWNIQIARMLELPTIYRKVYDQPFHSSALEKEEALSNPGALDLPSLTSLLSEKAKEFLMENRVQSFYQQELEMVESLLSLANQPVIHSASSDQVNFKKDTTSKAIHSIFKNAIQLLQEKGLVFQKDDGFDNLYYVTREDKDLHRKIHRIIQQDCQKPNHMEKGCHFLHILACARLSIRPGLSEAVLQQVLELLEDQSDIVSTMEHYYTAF
Sequence of CST (CTC1-STN1-TEN1) (Q86WV5 whole entry, chain 3 of 3): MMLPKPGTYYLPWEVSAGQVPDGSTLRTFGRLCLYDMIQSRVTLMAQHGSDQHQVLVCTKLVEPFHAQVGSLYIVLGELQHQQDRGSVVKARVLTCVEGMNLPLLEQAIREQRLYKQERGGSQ

Binder | Kd [1] [nM] | Kd [2] [nM] | Kd [3] [nM]
GGGTTAGGGTTAGGGTTAGGG (ssDNA) [Tel21] | 1.9 | 1.3 | 
GGGTTAGGGTTAGGGTTAGGG (structured_DNA) [Tel21 G4] |  |  | 5.5
